Results as given in US20240245751A1.

Target: Tat-PYC-Smad7 (recombinant Tat-tagged protein containing amino acids 203-426 of human Smad7) (human) (UniProt O15105)
Assay: sandwich ELISA: rabbit anti-Smad7 (Novus NBP1-87728) as capture, MAB2029 as detection, Tat-PYC-Smad7 spiked into dog serum, OD 450

Sequence of UniProt O15105 (O15105 other isoform, or with tags, fused parts or gaps limits assumed): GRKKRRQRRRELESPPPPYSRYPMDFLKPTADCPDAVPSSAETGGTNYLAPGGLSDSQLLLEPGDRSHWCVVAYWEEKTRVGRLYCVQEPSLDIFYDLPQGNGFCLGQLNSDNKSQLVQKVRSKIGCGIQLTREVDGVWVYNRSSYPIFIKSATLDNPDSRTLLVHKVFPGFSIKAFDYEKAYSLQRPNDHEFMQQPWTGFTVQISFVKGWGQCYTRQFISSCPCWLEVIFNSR

Mouse monoclonal antibody (R&D #MAB2029) that recognized the c-terminus of human SMAD7
lowest concentration detected: 0.16 ng/mL
